In publication PMC10720262 (Cell Reports, 2023):

Key:
[1] = target: recombinant full-length PfCSP (Plasmodium falciparum circumsporozoite protein, strain NF54) (Plasmodium falciparum NF54, UniProt P19597); test: cell-based or functional assay
NANP6 peptide = target: T1, NANP6 peptide (Plasmodium falciparum NF54); test: SPR; Carterra LSA; mAb amine-coupled to a CMD200M chip, peptide titrated in 2-fold steps up to 8 ug/mL without regeneration; 25 C; HBSTE (10 mM HEPES pH 7.4, 150 mM NaCl, 3 mM EDTA, 0.01% Tween 20); 1:1 Langmuir model; mean of triplicates; KD includes avidity for antigens with several repeats; conditions: both partners purified
T1 construct: source: synthetic peptide (CPC Scientific)

Sequence of recombinant full-length PfCSP (Plasmodium falciparum circumsporozoite protein, strain NF54) (P19597 20-375): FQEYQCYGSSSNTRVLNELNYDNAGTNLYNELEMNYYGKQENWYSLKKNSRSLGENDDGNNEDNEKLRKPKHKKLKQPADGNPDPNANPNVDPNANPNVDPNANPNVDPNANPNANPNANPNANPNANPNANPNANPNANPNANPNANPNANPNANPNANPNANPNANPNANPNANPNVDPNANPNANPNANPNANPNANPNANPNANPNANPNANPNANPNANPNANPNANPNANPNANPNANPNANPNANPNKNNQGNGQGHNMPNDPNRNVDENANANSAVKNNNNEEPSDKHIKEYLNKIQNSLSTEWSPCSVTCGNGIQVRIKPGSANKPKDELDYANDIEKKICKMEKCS

Binder | other [1] | Kd (NANP6 peptide)
mAb Ky224 (human IgG1) (antibody, V domains shown) VH: QVQLVESGGGVVQPGRSLRLSCAASGFTFSVYGMHWVRQAPGKGLEWVAVIWYDGSNKIYADSVKGRFTISRDNSKNTLYLQMDSLSAADTAVYYCAKIGSSSFDYWGQGTLVIVSS VL: DIVMTQTPLSSPVTLGQPASISCRSSQSLVHSNGITYLSWLQQRPGQPPRLLLYEISNRFSGVPDRFSGSGTGTDFTLKISRVEAEDVGVYYCMQTTQFPITFGQGTRLEIK | < 1.5 µg/mL | –
mAb Ky230 (human IgG1) (antibody, V domains shown) VH: QVQLVESGGGVVQPGRSLRLSCAASGFTFSDYGMHWVRQAPGKGLEWVAIIWHDGSNKYYVDSVKGRFTISRDNSKNTLYLQMNSLRAEDTAVYYCARAASSFGSGFDYWGQGTLVTVSS VL: DVVMTQSPLSLPVTLGQPASIFCRSSQSLVYSDGNTYLNWFQRRPGQSPRRLIYKVSDRDSGVPDRFSGSGSGTDFTLQISRVEAEDVGVYYCMQGTHWPPTFGQGTKVEIK | < 1.5 µg/mL | –
mAb Ky15.10 (human IgG1) (antibody, V domains shown) VH: QVQLVESGGGVVQPGRSLRLSCAASGFTFSNSGMHWVRQVPGKGLEWVAIIWYDGSNKYYADSVKGRFSVSRDNSENTLYLQMSNLRAEDTAVYYCVRAYFDSENLYDYYGMDVWGQGTTVTVSS VL: DIQMTQSPSTLSASVGDRVTITCRASQSISRWLAWFQKKPGKAPKLLIYTASNLESGVPSRFSGSGSGTEFTLTISSLQPDDFATYYCQQYYNYWTFGQGTKVEVK | < 1.5 µg/mL | –
mAb Ky15.3 (human IgG1) (antibody, V domains shown) VH: QVQLVESGGGVVQPGRSLRLSCVASGFTFSNAGMHWVRQTPGKGLEWVAIIWYDGSIKYYGESVKGRFTISRDNSKNTLYLEMSSLRAEDTAVYFCVRAYSGSLYDKYGMDVWGQGTTVIVSS VL: DIQMTQSPSTLSASVGDRVTISCRASQTISTWLAWFQQKPGKAPKLLIYAASSLQSGVPSRFSGSGSGTDFTLTISNLQPDDFATYYCQQFNSYWTFGQGTKVEIK | < 1.5 µg/mL | –
Ky15.3 (antibody, V domains shown, source: CHO-3E7, purified (MabSelect SuRe LX)) VH: QVQLVESGGGVVQPGRSLRLSCVASGFTFSNAGMHWVRQTPGKGLEWVAIIWYDGSIKYYGESVKGRFTISRDNSKNTLYLEMSSLRAEDTAVYFCVRAYSGSLYDKYGMDVWGQGTTVIVSS VL: DIQMTQSPSTLSASVGDRVTISCRASQTISTWLAWFQQKPGKAPKLLIYAASSLQSGVPSRFSGSGSGTDFTLTISNLQPDDFATYYCQQFNSYWTFGQGTKVEIK | – | ≤ 0.0174 nM
mAb Ky15.1 (human IgG1) (antibody, V domains shown) VH: QVQLVESGGGVVQPGRSLRLSCAASGFTFSNFGMHWVRQTPDRGLEWVAIIWFDGSNTFYADSVKGRFTISRDNYKNTLYLQMNSLRAEDTAVYFCARSFYSDSAGSLFDYWGQGTLVTVSS VL: DIQMTQSPSTLSASVGDRVTITCRASQSISSWVAWYQQKPGKAPKLLIYKASDLETGVPSRFSGSGSGTEFTLTISGLQPDDFVTYYCLQNMRYWTFGQGTKVEIK | < 1.5 µg/mL | –
mAb Ky15.5 (human IgG1) (antibody, V domains shown) VH: QVQMVASGGGVVQPGRSLRLSCAVSGFTFRNFGMHWVRQDPGRGLEWVAIIWYDGSYEFYADSVKGRFTISRDNSKNTLYLQMNSLRAEDTAVYYCARSYGSLTGDETKYGMDVWGQGTTVTVSS VL: DIQMTQSPSTLSASVGDRVTITCRASQSISSWLAWFQQKPGKAPKLLIYKASSLESGVPSRFSGSGSGTEFTLTISSLQPDDFATYYCQQYKNYWTFGQGTKVEIK | < 1.5 µg/mL | –
Ky15.5 (antibody, V domains shown, source: CHO-3E7, purified (MabSelect SuRe LX)) VH: QVQMVASGGGVVQPGRSLRLSCAVSGFTFRNFGMHWVRQDPGRGLEWVAIIWYDGSYEFYADSVKGRFTISRDNSKNTLYLQMNSLRAEDTAVYYCARSYGSLTGDETKYGMDVWGQGTTVTVSS VL: DIQMTQSPSTLSASVGDRVTITCRASQSISSWLAWFQQKPGKAPKLLIYKASSLESGVPSRFSGSGSGTEFTLTISSLQPDDFATYYCQQYKNYWTFGQGTKVEIK | – | ≤ 0.0369 nM
mAb Ky15.8 (human IgG1) (antibody, V domains shown) VH: QVQLVESGGNVVQPGRSLRLSCTASGFTFSSYGMHWVRQAPDKGLEWVAIIWYDGGNKFYADSVKGRFTISRDNSKDTLYLQMNSLRAEDTAVYYCAKAWYKIDDKYSMDVWGQGTTVTVSS VL: not shown | < 1.5 µg/mL | –
mAb Ky315 (human IgG1) (antibody, V domains shown) VH: QVQLVESGGGVVQPGRSLRLSCAASGFTLSNYGVHWVRQAPGTGLEWVALIWYDGSNKFYADSVKGRFTISRDNSMDIVYLQMNNLRAEDTALYYCVRPGIAAAGSNYYAMDVWGQGTAVTVSS VL: EIVMTQSPATLSMSPGERATLSCRASQSVGSDLAWFQQKPGQAPRLLIYGAFTRATGIPARFSGSGSGSEFTLTISSLQSEDFAVYYCQQYNRWWTFGQGTKVEMK | < 1.5 µg/mL | –
mAb Ky15.2 (human IgG1) (antibody, V domains shown) VH: QVLLVESGGGVVQPGTSLRLSCVASGFSFSTYGMHWVRQSPGKGLEWVAIIWYDGGNKFYADSVQGRFTVSRDNSKNTLYLQMNSLRAEDTAVYYCAKAYRTSLDKKYGMDVWGQGTTVTVSS VL: DIQMTQSPSTLSASVGDRVTITCRASQSIASWLAWYQQKPGKAPKLLIYKASSLESGVPSRFSGSGSGTEFTLTISSLHPDDFATYFCQQFTSYWTFGQGTKVEIK | < 1.5 µg/mL | –
mAb Ky15.7 (human IgG1) (antibody, V domains shown) VH: QVQVVESGGGAVQPGRSLRLSCAASGFTFSNRGMHWVRQTPGKGLEWVAIIWYDGGNKFYADSVKGRFTISRDNSKNTLYLQMNSLRDEDTAVYYCVRAGDWKADKYTMDVWGQGTTVTVSS VL: DIQMTQSPSTLSASVGDRVTITCRASQSISSWLAWYQQKPGKAPKVLIYQASSLESGVPSRFSGSGSGTEFTLTISSLQPDDFATYYCQQYNSYWTFGQGTKVEIK | < 1.5 µg/mL | –
mAb Ky15.11 (human IgG1) (antibody, V domains shown) VH: QVQLVESGGGVVQPGRSLRLSCEASGFTFSNFGMHWVRQTPVKGLEWVAIIWFDGSYKYYTDSVKGRFTISRDNSKNTLYLQMNSLRAEDTAVYYCARARKGQRSDYYGSETSYTFDNWGQGTLVTVSS VL: DIQMTQSPSTLSASVGDRVTITCRASQSINGWLAWYQQKPGKAPKFLIYKASILESGIPSRFSGSGSGTEFTLTISSLQPDDFATYYCQQYSSYWTFGQGTKVEIK | < 1.5 µg/mL | –
Ky15.2 (antibody, V domains shown, source: CHO-3E7, purified (MabSelect SuRe LX)) VH: QVLLVESGGGVVQPGTSLRLSCVASGFSFSTYGMHWVRQSPGKGLEWVAIIWYDGGNKFYADSVQGRFTVSRDNSKNTLYLQMNSLRAEDTAVYYCAKAYRTSLDKKYGMDVWGQGTTVTVSS VL: DIQMTQSPSTLSASVGDRVTITCRASQSIASWLAWYQQKPGKAPKLLIYKASSLESGVPSRFSGSGSGTEFTLTISSLHPDDFATYFCQQFTSYWTFGQGTKVEIK | – | 0.0713 nM
mAb Ky311 (human IgG1) (antibody, V domains shown) VH: QMHLVESGGGVVQPGRSLRLSCVASGFTFNNHGMHWVRQAPGKGLEWVAVIWHDGSNKFYADSVNGRFIVSRDNSKNTLYLHMNSLRAEDTAVYYCARDFFVSGSYNYFDPWGQGTLVTVSS VL: EIVLTQSPVTLSLSPGERATLSCRASQSVSNYLAWYQQKPGQAPRLLIYDAANRATGTPARFSGSGSGTDFTLTISSLEPEDFAVYFCQQRSKWFTFGPGTKLDIK | < 1.5 µg/mL | –
